Experimental findings from the supplement of paper PMC9170038 are described below.

The subject of series [1] is MS2 coat protein. Nature of the series: apparent KD of MS2 coat protein, switch OFF state (with FMN for OFF switches, without FMN for ON switches); designed switch direction (-1 OFF switch, 1 ON switch): -1; higher = weaker reporter binding. Conditions: FMN input: 0 or 200 uM; Eterna round: R93 (includes R88 designs). The gist of the method:
(§1)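 Designed RNA switches, transcribed on-chip from Illumina sequencing clusters, were titrated with SNAP-549-labelled MS2 coat protein from 0.7 or 1.5 nM to 3 µM in twofold steps. The solution was 100 mM Tris-HCl pH 7.5, 80 mM KCl, 4 mM MgCl2, with constant ligand or without it. Apparent KD is the median over each design's normalised cluster binding-curve fits.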

Series [2] has as its system MS2 coat protein. Nature of the series: apparent KD of MS2 coat protein, switch ON state; designed switch direction (-1 OFF switch, 1 ON switch): -1; higher = weaker reporter binding. The settings on record: FMN input: 0 or 200 uM; Eterna round: R93 (includes R88 designs). The gist of the method: as §1

In the case of “CUCUUGUCAGGAUAUAGAAGAAAAGAAGAGAAAGAAAAGAACUAGAAGGGACAUGAGGAUCACCCAUGUAAGAA [EteRNA is fun!]”, the figures for the “apparent KD of MS2 coat protein” value in the series with MS2 coat protein [1] and with MS2 coat protein [2] were 49.2 nM and 48.7 nM, respectively.
In the same order, the values of “AAGACGUAAGGAUAUAUUAUGGGACAAUGAAGGAAGAUAAAACAUGAGGAUCACCCAUGUAGAAGGUGCAAAGA [JR_Exclusion2_Sub3]” are 32.8 nM and 40.3 nM.
In the case of “AAGAACACAGGAUAUACAUGAGGAUCACCCAUGUAAAAGAAAGAAAAGGGAAAGAAAAGUAGAAGGGUGAAGAA [Nebkheperure Tutankhaten]”, the “apparent KD of MS2 coat protein” value with MS2 coat protein [1] worked out at 51.3 nM; with MS2 coat protein [2], 44.7 nM.
In the case of “AAGCCACAUGAGGAUCACCCAUGUAAGGAUAUGAACGAAAUAAAAUAAAAAUAAAAGUUCAGAAGGUACAAAAA [Mat - Exclusion 1 - Eli mod - D23]”, the “apparent KD of MS2 coat protein” value in the series with MS2 coat protein [1] was 21.9 nM; in the series on MS2 coat protein [2], 20.2 nM.
In the case of “AAAAAGUAAGGAUAUACAAAAGAAAACACAAAAAAAAAAAAACAUGAGGAUCACCCAUGUAGAAGGUACAAAAA [Ex2 Malc#1]”, the “apparent KD of MS2 coat protein” value with MS2 coat protein [1] was found to be 19.3 nM; in the series with MS2 coat protein [2], 27.3 nM.
The corresponding values for “AAGAAGUCAGGAUAUGCUAAAGAAAUAAAAAUAAAUAAAGAACAUGAGGAUCACCCAUGUAGAAGGGACAAGAA [Sewadjkare Hori]” are 33.3 nM and 72.1 nM.
In the same order, the values of “AAAAAACAUGAGGAUCACCCAUGUGAGGAUAUCCUGAAUGAAAUAAAAUAUCUCGAAAGGAGAAGGCGCAAAAA [Ex 1 May 33]” are 49.9 nM and 67.7 nM.
Consider “AGAAAACAUGAGGAUCACCCAUGUCAGGAUAUCAAAAAGAAAAGAAAAGAAAGAAGAAUGAGAAGGGACAAGAA [Khasekhem(wy)]”, for which the “apparent KD of MS2 coat protein” value amounted to 32.1 nM in the series on MS2 coat protein [1] and 27.5 nM in the series with MS2 coat protein [2].
“AAUAAACAUGAGGAUCACCCAUGUGAGGAUAUACAAAUAAAUAAAAAUAAAAUAAAAAGUAGAAGGCACAAUAA [JR_Exc001_Sub001]”: the “apparent KD of MS2 coat protein” value in the series with MS2 coat protein [1] was 27.8 nM; in the series on MS2 coat protein [2], 23.5 nM.
With “AAAAAACAUGAGGAUCACCCAUGUCAGGAUAUCCGGAAAAAAAAAAAAAAAAGGCGUUGGAGAAGGGACAUUCC [Chica Displaced 8 - Jieux - Exclusion 1]”, the results for the “apparent KD of MS2 coat protein” value with MS2 coat protein [1] and in the series on MS2 coat protein [2] were 36.8 nM and 28.7 nM, respectively.
As to “AUGGUAGGAGGAUAUACAUAGAUACAGAUACAUGUAGACGUACAUGAGGAUCACCCAUGUAGAAGGCCUAUAAA [Mat - Same state - Mayanna Mod - D150]”, the “apparent KD of MS2 coat protein” value was determined as 82.3 nM with MS2 coat protein [1] and 97.9 nM in the series on MS2 coat protein [2].
For “AAAAAACAUGAGGAUCACCCAUGUGAGGAUAUGACGUAAAUAAAGAAAUAAGAAAUCGUCAGAAGGCACAAAAA [Mat - Exclusion 1 - Eli mod - D73]”, the figures for the “apparent KD of MS2 coat protein” value in the series on MS2 coat protein [1] and with MS2 coat protein [2] were 41.7 nM and 28.6 nM, respectively.
“AAAAAUGGAGGAUAUACAUGAGGAUCACCCAUGUGUGACUAUACUAAGCGCUCUUCAGGUAGAAGGCCAAAAAA [Gilly Gone Silly 17 - Jieux - Exclusion 3]”: the “apparent KD of MS2 coat protein” value in the series on MS2 coat protein [1] came out at 60.3 nM; in the series with MS2 coat protein [2], 43.8 nM.
Consider “GGUUUGGUAGGAUAUACAUGAGGAUCACCCAUGUGAGAGAAAAAAGUGAGAAAGAAAAGUAGAAGGACCGGACG [salish99-ex3-123]”, for which the “apparent KD of MS2 coat protein” value in the series with MS2 coat protein [1] worked out at 102 nM; with MS2 coat protein [2] it was 39.9 nM.
The corresponding values for “AAAAAGUGAGGAUAUACGCGAACAAAAAAAAAAAAGAAAGCGUAGAAGGCACAUGAGGAUCACCCAUGUCCAAA [Alfred 64% 4]” are 39 nM and 28 nM.
For “AAGAAGUGAGGAUAUCGAAAAGAAAAGAAAAGAAAAGAAAACGAGAAGGCACAUGAGGAUCACCCAUGUAAGAA [Setutre Darius I the Great]”, the “apparent KD of MS2 coat protein” value with MS2 coat protein [1] came out at 41 nM; with MS2 coat protein [2], 28.1 nM.
Turning to “UAAAGGCGAGGAUAUACAUGAGGAUCACCCAUGUGAAUAAAUAAGAAAAUAAAAGAAAGUAGAAGGCGCAAGAA [LROPPY Exclusion 3 - v03_deltaG=1.9 break up As mixed]”, the “apparent KD of MS2 coat protein” value in the series on MS2 coat protein [1] was determined as 44.9 nM; with MS2 coat protein [2], 44.1 nM.
The corresponding values for “AAAAAACAUGAGGAUCACCCAUGUGAGGAUAUACAGAAUGGAAUAAAAUAACAAGAAAGUAGAAGGCACAAAAA [Ex 1 May 38]” are 41.6 nM and 36.2 nM.
In the same order, the values of “AAGGGACAUGAGGAUCACCCAUGUGAGGAUAUGCUAUGGAAAAUAAAAAUAAAACAUAGCAGAAGGCAUAAAAA [Denovo 9]” are 44.8 nM and 60.1 nM.
On to “CAGUACUGAGGAUAUACAUGAGGAUCACCCAUGUGUUCCAGCUAGGAAACUAGCACAUGUAGAAGGCAGUACUG [Ex3: 826]”, for which the “apparent KD of MS2 coat protein” value in the series on MS2 coat protein [1] came to 16.8 nM; in the series with MS2 coat protein [2], 187 nM.
Take “AAGAAGUAAGGAUAUCGAAGACUGUCGAAAAGACAGUCGAACGAGAAGGUACAUGAGGAUCACCCAUGUGAGAA [Opal 24]”: the figures for the “apparent KD of MS2 coat protein” value in the series on MS2 coat protein [1] and in the series on MS2 coat protein [2] were 41 nM and 25.5 nM, respectively.
For “AAAGUACGAGGAUAUACAUAGAUACAGAUACAUGUAGACGUACAUGAGGAUCACCCAUGUAGAAGGCGUACAAG [Mat - Same state - Mayanna Mod - D116]”, the “apparent KD of MS2 coat protein” value with MS2 coat protein [1] was 327 nM; in the series on MS2 coat protein [2], 172 nM.
On to “AGUUGGCGAGGAUAUACAUGAGGAUCACCCAUGUGAAAUCGCGAAAAAAUAGGGAAAAGUAGAAGGCGCUGACA [73%, Moding Norbert Elias, 18]”, for which the “apparent KD of MS2 coat protein” value with MS2 coat protein [1] was found to be 21 nM; in the series with MS2 coat protein [2] it was 11 nM.
Consider “AAGGGACAUGAGGAUCACCCAUGUCAGGAUAUGCAAAUAACAAACAACAAACAACAAAGCAGAAGGGACAAAAA [Mat - Exclusion 1 - Eli mod - D53]”, for which the “apparent KD of MS2 coat protein” value in the series on MS2 coat protein [1] stood at 24.8 nM; in the series on MS2 coat protein [2] it was 27.9 nM.
In the case of “AAAAAGUCAGGAUAUACAUGAGGAUCACCCAUGUGAAAGAACGAUUAACGACCAGCAAGUAGAAGGGACAAAAA [Ruby 80]”, the results for the “apparent KD of MS2 coat protein” value in the series with MS2 coat protein [1] and with MS2 coat protein [2] were 20.8 nM and 22 nM, respectively.
The corresponding values for “AAAACACAUGAGGAUCACCCAUGUGAGGAUAUGAACGAAAUAAAAUAAAAAUAAAAGUUCAGAAGGCACAAAAA [Mat - Exclusion 1 - Eli mod - D13]” are 36.6 nM and 22.2 nM.
Take “AGUAACCAAGGAUAUACAAAACCUGUGAUCGAAUGGAUUUUACAUGAGGAUCACCCAUGUAGAAGGUGGAAAGG [Xeedce]”: the “apparent KD of MS2 coat protein” value in the series on MS2 coat protein [1] is 35 nM; with MS2 coat protein [2] it was 22.7 nM.
In the case of “GAAAAUGGAGGAUAUACAUGAGGAUCACCCAUGUGUAUAAAAAAAUACACAAAAGAAAGUAGAAGGCCAUAAAG [Mat - Exclusion 3 - Mayanna mod - D101]”, the entries for the “apparent KD of MS2 coat protein” value with MS2 coat protein [1] and with MS2 coat protein [2] were 114 nM and 31.4 nM, respectively.
The corresponding values for “AAAACUGGAGGAUAUACAUGAGGAUCACCCAUGUGUGGAUGAGCUGAGACGGCAUCACGUAGAAGGCCACAAAA [Gilly Gone Silly 39 - Jieux - Exclusion 3]” are 44 nM and 33.2 nM.
In the same order, the values of “AUAGGGCUAGGAUAUACAUGAGGAUCACCCAUGUAAACAGAUAGAUCAAGGUAAACGAGUAGAAGGAGCAAUAA [JR_Exc003_Sub210]” are 18.8 nM and 19.5 nM.
In the case of “GAAGAACAUGAGGAUCACCCAUGUCAGGAUAUACAGAAGGGAAUAAAAUAACCUGAAAGUAGAAGGGACAAGAA [Ex 1 May 42]”, the figures for the “apparent KD of MS2 coat protein” value in the series with MS2 coat protein [1] and in the series with MS2 coat protein [2] were 57.2 nM and 29 nM, respectively.
In the same order, the values of “AAAAAACAUGAGGAUCACCCAUGUGAGGAUAUCGCUAGUGAGACCCUAGUGUCAGUGAUGAGAAGGCACAUAAA [Brourd 613 Mod 8 - Jieux - Exclusion 1]” are 32.5 nM and 32.8 nM.
The corresponding values for “AACUGACAUGAGGAUCACCCAUGUCAGGAUAUGAUAUGUAAAAAAAAAAAAAUACUUAUCAGAAGGGACAUGAA [Design 44: Sub-opt CB]” are 14.1 nM and 15.1 nM.
In the case of “AAAAAAUCAGGAUAUACAUGAGGAUCACCCAUGUGAAAGAACGAUUAACGACCAGCAAGUAGAAGGGAUAAAAA [Ruby 81]”, the “apparent KD of MS2 coat protein” value in the series on MS2 coat protein [1] turned out to be 19.7 nM; in the series with MS2 coat protein [2], 18.1 nM.
“AAGAAAGGAGGAUAUACAUGAGGAUCACCCAUGUAAAAGAAAGAAAGGGAAAAGAAAAGUAGAAGGCCUAAGAA [Shoshenq IV]”: the figures for the “apparent KD of MS2 coat protein” value in the series with MS2 coat protein [1] and in the series on MS2 coat protein [2] were 41.2 nM and 35.3 nM, respectively.
For “ACCUGACAUGAGGAUCACCCAUGUCAGGAUAUGACUUCGAAAAAAAAAAAAAACGAUGUCAGAAGGGACAUGGG [Design 70: Sub-opt P]”, the “apparent KD of MS2 coat protein” value in the series on MS2 coat protein [1] came to 15.9 nM; in the series with MS2 coat protein [2], 15.4 nM.
Turning to “GGAAAGCAAGGAUAUGCAAACAAACAAACAAACAAAAGGGAACAUGAGGAUCACCCAUGUAGAAGGUGCAAACA [Exclusion 2 Two redone]”, the “apparent KD of MS2 coat protein” value with MS2 coat protein [1] is 28.6 nM; in the series on MS2 coat protein [2] it was 41.9 nM.
The corresponding values for “AACAUGUGAGGAUAUGUACGAAAAAAUAAAAAAAUAAAAGUACAGAAGGCACAUGAGGAUCACCCAUGUGAAAA [EX4 395: Minimal 8]” are 271 nM and 176 nM.
For the sequence “AAAAAACAUGAGGAUCACCCAUGUUAGGAUAUGCAGAGGGAAAAAAAAAAAAAAAAAAGCAGAAGGAACAUAAA [Design1]”, the “apparent KD of MS2 coat protein” value came out at 26.5 nM in the series on MS2 coat protein [1] and 31.5 nM in the series with MS2 coat protein [2].
